# Experimental data as given in paper PMC2959088, “Molecular determinants of improved cathepsin B inhibition by new cystatins obtained by DNA shuffling” (BMC Structural Biology, 2010).
# Biological target: T1, human cathepsin L (human)
# T1 construct: cathepsin L, human, bought from Calbiochem; active enzyme used at 0.3 nM; source: bought: Calbiochem
# Assay: enzyme inhibition assay (residual activity on the fluorogenic substrate Z-Phe-Arg-MCA); cathepsin B or L (0.3 nM) incubated 5 min at 37°C with varied inhibitor in 100 mM sodium acetate pH 5.5, 2.5 mM DTT; substrate 0.01 mM; triplicate; Ki(app) by non linear regression (GraFit), Ki by Morrison's procedure
# Details: both partners purified
binder,measurement,value
Oryzacystatin-1 N-terminal deletion (NΔ) (natural protein) MSSDGGPVGNENDLHLVDLARFAVTEHNKKANSLLEFEKLVSVKQQVVAGTLYYFTIEVKEGDAKKLYEAKVWEKPWMDFKELQEFKPVDASANA,Ki,5.66 nM
